According to paper PMC12795458:

Biological target: RipA fused to the Nanoluciferase large subunit (CEPlac-lgbit-ripA)
Test: split-luciferase assay
Settings: in S. pneumoniae cells, signal relative to control strains R5380 and R5570, read off a plot

In the case of “DnaN fused to the Nanoluciferase small subunit (CEPIIlac-smBit-dnaN) (from UniProt O06672) H183P”, the response (relative fold induction) (strain R5566 vs R5381, parent: est. 22) is reported as 4.8.

In the case of “DnaN fused to the Nanoluciferase small subunit (CEPIIlac-smBit-dnaN) (from UniProt O06672) Y249N”, the response (relative fold induction) (strain R5568 vs R5381, parent: est. 13) is reported as 4.8.

“DnaN fused to the Nanoluciferase small subunit (CEPIIlac-smBit-dnaN) (from UniProt O06672) L185R” gave a response (relative fold induction) (strain R5567 vs R5381, parent: est. 27) of 5.5.
